Tests used:
Assay in all cases: crystal structure
Settings in all cases: both partners purified
[1] = molecular target: TBEV^WE EDIII-His-Avitag (envelope domain III of tick-borne encephalitis virus, Western European subtype, … (Tick-borne encephalitis virus Western …, UniProt P14336))
[2] = molecular target: TBEV^FE EDIII-His-Avitag (envelope domain III of tick-borne encephalitis virus, Far Eastern subtype, strain … (Tick-borne encephalitis virus Far …, UniProt P07720, strain))
[3] = molecular target: TBEV^Si EDIII (envelope domain III of tick-borne encephalitis virus, Siberian subtype, strain Vasilchenko), … (Tick-borne encephalitis virus Siberian …, UniProt Q9WBS4, strain)

Measured: binding result

B1: T025 Fab (antigen-binding fragment of human antibody T025, IGVH3–30/IGVK3–15) (Fab, V domains shown)
VH: QVQLVESGGGVVQPGRSLRLSCAASGFTFSNYGMHWVRQAPGKGLDWVAVISYDAISKSYADSVEGRFTISRDNSKNTLYLQMNSLRAEDSAVYYCAKSPTAIDPPFDYWGQGTLVTVSS
VL: EIVMTQSPATLSVSPGERATLSCWASQSVSSNLAWYQQKPGQAPRLLIYGASTRATGIPARFSASGSGTEFTLTISSLQSEDFAVYYCQQYNNWPPRFGQGTKVEIK
notes: not shown: 6XHis, C-terminal, kept
binds: [1] | [2] | [3]

Source: publication PMC8040517 (The Journal of Experimental Medicine, 2021)
